Laboratory results published in US20080050387A1, “Non-Androgen Dependent Roles for Androgen Receptor and Non-Androgen Related Inhibitors of Androgen Receptor” (priority 2003, published 2008).

How the values were obtained:
[1] = target: T1, human glucocorticoid receptor (hGR) (Homo sapiens, UniProt P04150); assay: hGR transactivation luciferase assay in COS-1 cells with GSK3β; type: cell-based
T1 construct: expressed in transfected cells; host or cells: COS-1
T1 sequence (P04150 1-777): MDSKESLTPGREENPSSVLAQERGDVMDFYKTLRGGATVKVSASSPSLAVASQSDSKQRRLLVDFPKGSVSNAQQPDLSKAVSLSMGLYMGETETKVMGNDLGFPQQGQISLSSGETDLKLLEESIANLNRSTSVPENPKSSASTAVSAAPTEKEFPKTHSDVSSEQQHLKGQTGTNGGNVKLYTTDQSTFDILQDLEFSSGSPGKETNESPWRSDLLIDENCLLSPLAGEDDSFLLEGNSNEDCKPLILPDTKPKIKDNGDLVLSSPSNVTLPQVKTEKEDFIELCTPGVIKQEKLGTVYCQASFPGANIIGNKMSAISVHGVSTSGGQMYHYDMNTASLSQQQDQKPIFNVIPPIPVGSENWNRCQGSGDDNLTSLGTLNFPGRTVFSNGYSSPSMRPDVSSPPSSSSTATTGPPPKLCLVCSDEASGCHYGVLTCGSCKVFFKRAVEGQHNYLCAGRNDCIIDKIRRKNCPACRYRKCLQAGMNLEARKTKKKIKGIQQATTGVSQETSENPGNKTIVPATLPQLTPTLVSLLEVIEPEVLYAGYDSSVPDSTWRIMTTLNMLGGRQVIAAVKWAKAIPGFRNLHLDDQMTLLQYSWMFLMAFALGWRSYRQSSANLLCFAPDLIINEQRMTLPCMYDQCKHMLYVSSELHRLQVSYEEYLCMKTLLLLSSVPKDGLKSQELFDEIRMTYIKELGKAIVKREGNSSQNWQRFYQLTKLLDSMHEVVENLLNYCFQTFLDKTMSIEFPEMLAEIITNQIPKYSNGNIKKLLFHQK
Method: (§1) COS-1 and PC-3 cells were maintained in early to mid-log phase in DMEM medium, supplemented with 10% fetal bovine serum (FBS), 50 units/ml penicillin and 50 μg/ml streptormnycin in incubators with humidified air and 5% carbon dioxide at 37° C. LNCaP cells were maintained in RPMI (GIBCO/BRL) medium. Twenty-four h prior to transfection, cells washed with Hanks' buffered saline solution, trypsinized, and seeded to be a density of 40-60% confluence for transfection. Cells in 12 well plates were refed with fresh medium 2 hours before transfection and transfected according to the “SuperFect Transfection” instructions (QIAGEN). After 2-3 h incubation, cells were treated with medium supplemented with charcoal-dextran treated FBS containing either ethanol or ligands. Cells were further incubated at 37° C. for 24 h, washed with PBS, and harvested.

AR [2] = assay: AR transactivation luciferase assay in COS-1 cells with GSK3β; type: cell-based, human
Method: as §1
Target sequence in this assay (P10275 with tags, fused parts or gaps DEL79-80/DUP473-473): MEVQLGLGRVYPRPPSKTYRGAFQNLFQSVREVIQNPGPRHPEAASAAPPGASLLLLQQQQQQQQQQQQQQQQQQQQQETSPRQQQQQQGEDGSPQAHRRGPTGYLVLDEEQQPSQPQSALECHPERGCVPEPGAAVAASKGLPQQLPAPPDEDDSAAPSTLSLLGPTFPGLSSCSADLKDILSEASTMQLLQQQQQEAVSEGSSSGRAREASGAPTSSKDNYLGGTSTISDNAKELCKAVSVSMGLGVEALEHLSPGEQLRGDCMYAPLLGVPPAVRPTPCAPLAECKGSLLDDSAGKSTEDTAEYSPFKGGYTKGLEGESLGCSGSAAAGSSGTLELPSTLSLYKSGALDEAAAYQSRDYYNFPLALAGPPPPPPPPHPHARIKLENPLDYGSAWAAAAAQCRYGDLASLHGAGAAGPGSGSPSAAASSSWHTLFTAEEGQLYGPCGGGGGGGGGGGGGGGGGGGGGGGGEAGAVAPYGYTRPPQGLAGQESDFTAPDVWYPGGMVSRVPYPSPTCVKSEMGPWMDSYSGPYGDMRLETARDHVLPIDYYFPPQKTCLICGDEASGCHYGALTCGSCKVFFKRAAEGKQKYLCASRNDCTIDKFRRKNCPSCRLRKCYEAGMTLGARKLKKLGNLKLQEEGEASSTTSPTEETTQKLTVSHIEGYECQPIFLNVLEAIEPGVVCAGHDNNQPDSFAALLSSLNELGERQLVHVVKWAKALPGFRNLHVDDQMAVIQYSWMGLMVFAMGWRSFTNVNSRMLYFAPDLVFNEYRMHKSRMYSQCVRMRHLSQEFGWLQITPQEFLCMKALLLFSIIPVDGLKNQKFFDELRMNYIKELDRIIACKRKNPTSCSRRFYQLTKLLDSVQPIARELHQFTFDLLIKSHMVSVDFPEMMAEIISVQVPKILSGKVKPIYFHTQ

AR [3] = assay: AR expression by immunoblot in LNCaP cells transfected with GSK3β; type: cell-based, human; settings: pCMV-GSK3β vs pCMV vector
Target sequence in this assay (P10275 whole entry T878A): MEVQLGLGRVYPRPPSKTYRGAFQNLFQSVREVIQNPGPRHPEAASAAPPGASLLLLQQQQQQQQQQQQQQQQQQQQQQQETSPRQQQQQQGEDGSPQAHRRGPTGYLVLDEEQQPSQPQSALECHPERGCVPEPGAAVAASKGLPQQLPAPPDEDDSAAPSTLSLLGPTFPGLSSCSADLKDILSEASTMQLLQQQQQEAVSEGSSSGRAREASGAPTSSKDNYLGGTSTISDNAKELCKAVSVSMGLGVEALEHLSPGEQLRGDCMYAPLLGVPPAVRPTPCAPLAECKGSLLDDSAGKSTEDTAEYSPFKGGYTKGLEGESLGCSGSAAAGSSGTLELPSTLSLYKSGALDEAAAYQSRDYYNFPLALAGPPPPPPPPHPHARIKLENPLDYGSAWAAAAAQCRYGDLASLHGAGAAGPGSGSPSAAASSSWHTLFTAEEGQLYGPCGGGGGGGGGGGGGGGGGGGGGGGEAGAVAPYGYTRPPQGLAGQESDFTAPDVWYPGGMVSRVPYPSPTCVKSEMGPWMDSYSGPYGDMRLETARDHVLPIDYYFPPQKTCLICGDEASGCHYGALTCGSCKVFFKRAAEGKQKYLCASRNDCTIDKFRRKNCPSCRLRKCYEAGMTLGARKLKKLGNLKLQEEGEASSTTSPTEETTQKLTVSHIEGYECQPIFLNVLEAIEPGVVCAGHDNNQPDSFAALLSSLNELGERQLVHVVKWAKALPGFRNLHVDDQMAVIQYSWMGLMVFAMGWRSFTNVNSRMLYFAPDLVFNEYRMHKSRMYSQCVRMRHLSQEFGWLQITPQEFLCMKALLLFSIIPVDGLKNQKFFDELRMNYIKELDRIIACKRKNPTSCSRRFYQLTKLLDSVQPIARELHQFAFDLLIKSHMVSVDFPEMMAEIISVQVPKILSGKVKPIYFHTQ

AR [4] = assay: AR transactivation luciferase assay in LNCaP cells with GSK3β; type: cell-based, human; settings: MMTV-Luc, DHT
Method: as §1
Target sequence in this assay (P10275 whole entry T878A): as above

AR [5] = assay: GST pull-down assay GSK3β / AR; type: binding, human; settings: presence or absence of DHT
Method: 5 μl of in vitro-translated β5S]-labeled AR was incubated with the GST or GST-GSK3β bound to glutathione-Sepharose beads in a pull-down assay. After extensive washing, bead-bound protein complexes were loaded onto 8% SDS-PAGE and analyzed by Phosphorlmager. The input represents 20% amount of [^35S]-labeled proteins used in each pull-down assay. […] COS-1 cells were solubilized in RIPA buffer containing 0.5% NP-40 and protease inhibitors. Immunoprecipitation was performed using mouse HA antibody (1:1000) or normal mouse IgG (N-IgG) and then analyzed by Western blot with anti-AR NH27 (1:1000) or anti-GSK3β (1:1000) antibodies, followed by incubation with AP conjugate goat anti-rabbit or rabbit anti-mouse IgM antibodies, and visualized with AP conjugate kit (Bio-Rad).
Target sequence in this assay (P49841 whole entry partner): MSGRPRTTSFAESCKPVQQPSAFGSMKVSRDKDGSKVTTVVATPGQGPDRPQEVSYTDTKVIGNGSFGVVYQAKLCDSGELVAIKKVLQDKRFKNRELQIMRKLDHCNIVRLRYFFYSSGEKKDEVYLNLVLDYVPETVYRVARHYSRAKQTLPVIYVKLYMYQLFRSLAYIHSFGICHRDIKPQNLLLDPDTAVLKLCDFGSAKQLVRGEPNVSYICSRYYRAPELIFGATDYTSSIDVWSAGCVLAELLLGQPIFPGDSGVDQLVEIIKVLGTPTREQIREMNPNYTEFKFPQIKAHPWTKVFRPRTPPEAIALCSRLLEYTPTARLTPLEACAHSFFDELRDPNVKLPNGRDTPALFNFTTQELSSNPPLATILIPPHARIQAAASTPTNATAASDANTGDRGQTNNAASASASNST

AR AF-1 / AF-2 = assay: GAL4-ARN / GAL4-AR-LBD pG5-Luc reporter assay in COS-1 cells; type: cell-based, human
Method: as §1

[6] = tested on: PSA expression in LNCaP cells; assay: PSA promoter activity and PSA mRNA (Northern blot) in LNCaP cells with GSK3β; type: cell-based, human
Method: as §1

AR [7] = assay: In vitro kinase assay of GSK3β on AR fragments; type: biochemical, human; settings: 30 min at 30° C.
[8] = tested on: MAPK (GAL4-Elk1 transactivation); assay: GAL4-Elk1 reporter gene assay (MAPK activation) in MCF7 cells; type: cell-based, human; settings: AR-FL-activated, pG5-luc reporter
Method: Cells were plated in 96-well plates and plasmids at 0.5 μg per well were transfected into cells using SuperFect (Qiagen). The medium was changed 2 h after transfection and cells were cultured in the medium containing 10% CDS-FBS or 0.2% HI-FBS for 16 h, followed by treatment with 50 ng/ml EGF, 100 ng/ml IGF-1,100 ng/ml HRG-α 0.1 nM E2, or 1 nM DHT for another 16 h. Cells were then harvested and the luciferase activity was analyzed using Dual-Luciferase Reporter Assay System (Promega). 5 ng pRL-TK per well was used as internal control.

AR [9] = assay: Mammalian two-hybrid assay hRad9 / AR in PC-3 cells; type: cell-based, human; settings: 10 nM DHT
Method: (§2) PC-3, CWR22R, and LNCaP cell lines were maintained in […] supplemented with 10% fetal calf serum (FCS). Transient transfection for luciferase assays was carried out in 24-well plates (5×10^4 cells per well) using SuperFect as described previously (Lin, H. K., et al., Embo J 21:4037-48 (2002)). DNA mixtures in transfection assay were indicated in each figure. The total amount of transfected DNA was kept constant (1 μg) by adding the corresponding amounts of empty expression plasmids. After transfection, cells were cultured in […] supplemented with 5% charcoal-stripped FCS in the presence or absence of 10 nM dihydrotestosterone (DHT) for 18 h. Luciferase assays were performed as previously described (Yang, L., et al., J Biol Chem 278:16820-7 (2003)). In Western blotting assays, CWR22R or LNCaP cells were transfected by electroporation using 5×10^6 cells/0.4 ml of RPMI medium containing 2% FCS plus 9 μg of the indicated plasmids. 1 μg of EGFP expression vector was used for transfection efficiency. Electroporation was performed at 250 V and 950 μF using Gene Pulser II (Bio-Rad)
Target sequence in this assay (P10275 with tags, fused parts or gaps DEL79-80/DUP473-473): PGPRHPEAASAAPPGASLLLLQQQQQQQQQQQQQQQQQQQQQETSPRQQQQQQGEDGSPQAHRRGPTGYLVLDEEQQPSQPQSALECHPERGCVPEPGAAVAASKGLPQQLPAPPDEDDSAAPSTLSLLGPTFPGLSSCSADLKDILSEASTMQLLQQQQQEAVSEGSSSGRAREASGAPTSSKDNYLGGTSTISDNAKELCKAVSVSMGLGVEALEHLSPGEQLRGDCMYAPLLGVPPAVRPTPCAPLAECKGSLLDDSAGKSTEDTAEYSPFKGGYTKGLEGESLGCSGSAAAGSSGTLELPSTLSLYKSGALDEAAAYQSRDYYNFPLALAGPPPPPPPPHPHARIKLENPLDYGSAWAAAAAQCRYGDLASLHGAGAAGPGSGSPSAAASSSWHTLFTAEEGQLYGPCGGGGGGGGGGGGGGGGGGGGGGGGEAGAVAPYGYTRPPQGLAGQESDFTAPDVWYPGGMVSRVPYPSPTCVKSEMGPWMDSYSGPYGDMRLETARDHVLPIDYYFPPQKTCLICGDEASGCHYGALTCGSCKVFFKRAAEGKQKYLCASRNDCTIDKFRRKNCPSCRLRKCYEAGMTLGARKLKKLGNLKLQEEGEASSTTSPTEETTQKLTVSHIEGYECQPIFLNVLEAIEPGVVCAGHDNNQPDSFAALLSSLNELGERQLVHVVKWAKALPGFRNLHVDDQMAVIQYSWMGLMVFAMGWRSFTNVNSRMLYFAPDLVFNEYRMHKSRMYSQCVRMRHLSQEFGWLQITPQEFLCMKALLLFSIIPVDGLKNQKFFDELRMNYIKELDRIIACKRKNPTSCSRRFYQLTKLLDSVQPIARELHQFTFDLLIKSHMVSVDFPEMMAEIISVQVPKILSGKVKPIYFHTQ

AR N/C interaction = assay: Reconstituted AR transcription assay (AR N/C interaction) in PC-3 cells; type: cell-based, human; settings: 10 nM DHT, MMTV-LUC
Method: as §2

AR [10] = assay: AR transactivation MMTV-LUC assay in PC-3 cells with hRad9; type: cell-based, human; settings: pCMV-AR, hRad9 termini
Method: as §2

Chain of AR N/C interaction (P10275 557-920): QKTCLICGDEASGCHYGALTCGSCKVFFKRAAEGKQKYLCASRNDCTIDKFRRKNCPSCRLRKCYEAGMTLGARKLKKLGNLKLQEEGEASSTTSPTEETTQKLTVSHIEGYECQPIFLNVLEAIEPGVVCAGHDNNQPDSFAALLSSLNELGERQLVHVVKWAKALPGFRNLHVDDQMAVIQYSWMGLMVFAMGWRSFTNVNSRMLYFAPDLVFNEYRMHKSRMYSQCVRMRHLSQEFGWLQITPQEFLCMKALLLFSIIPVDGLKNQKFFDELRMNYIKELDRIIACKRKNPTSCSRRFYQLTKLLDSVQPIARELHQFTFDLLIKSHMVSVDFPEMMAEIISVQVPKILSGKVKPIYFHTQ

B1: GSK3β: glycogen synthase kinase 3β, serine/threonine protein kinase (SEQ ID NO:5), wild type (protein)
chain: MSGRPRTTSFAESCKPVQQPSAFGSMKVSRDKDGSKVTTVVATPGQGPDRPQEVSYTDTKVIGNGSFGVVYQAKLCDSGELVAIKKVLQDKRFKNRELQIMRKLDHCNIVRLRYFFYSSGEKKDEVYLNLVLDYVPETVYRVARHYSRAKQTLPVIYVKLYMYQLFRSLAYIHSFGICHRDIKPQNLLLDPDTAVLKLCDFGSAKQLVRGEPNVSYICSRYYRAPELIFGATDYTSSIDVWSAGCVLAELLLGQPIFPGDSGVDQLVEIIKVLGTPTREQIREMNPNYTEFKFPQIKAHPWTKDSSGTGHFTSGVRVFRPRTPPEAIALCSRLLEYTPTARLTPLEACAHSFFDELRDPNVKLPNGRDTPALFNFTTQELSSNPPLATILIPPHARIQAAASTPTNATAASDANTGDRGQTNNAASASASNST
- hGR transactivation [1]: failed to inhibit
- AR-mediated transcription of the luciferase reporter reduced by (AR [2]; ARE4-Luc, 10 nM DHT): about 40%
- DHT-mediated AR transactivation / AR transcriptional activity (AR [2]; MMTV-Luc): inhibits
- endogenous expression of AR (AR [3]): little change
- activity of AR (AR [4]): reduced
- binding of 35S-methionine-labeled AR to GST-GSK3β (AR [5]): bind specifically
- activity of GAL4-AR-LBD (AR AF-1 / AF-2): did not influence
- constitutive transcriptional activity of GAL4-ARN (AR AF-1 / AF-2): inhibited
- expression of PSA mRNA ([6]; Northern blot, 10 nM DHT): reduced
- DHT-mediated induction of transcription from the PSA promoter ([6]; PSA-luc): repressed
- phosphorylation of GST-AR38-560 (N-terminus) (AR [7]): significantly phosphorylated
- phosphorylation of GST-AR-DBD-LBD or 6His-AR-LBD (AR [7]): slightly phosphorylated

B2: CL-100: MAPK phosphatase-1 (protein, UniProt P28562 1-367, looked up)
Dual specificity protein …: MVMEVGTLDAGGLRALLGERAAQCLLLDCRSFFAFNAGHIAGSVNVRFSTIVRRRAKGAMGLEHIVPNAELRGRLLAGAYHAVVLLDERSAALDGAKRDGTLALAAGALCREARAAQVFFLKGGYEAFSASCPELCSKQSTPMGLSLPLSTSVPDSAESGCSSCSTPLYDQGGPVEILPFLYLGSAYHASRKDMLDALGITALINVSANCPNHFEGHYQYKSIPVEDNHKADISSWFNEAIDFIDSIKNAGGRVFVHCQAGISRSATICLAYLMRTNRVKLDEAFEFVKQRRSIISPNFSFMGQLLQFESQVLAPHCSAEAGSPAMAVLDRGTSTTTVFNFPVSIPVHSTNSALSYLQSPITTSPSC
- AR-activated GAL4-Elk1 activity [8]: diminished

B3: N-hRad9: PCNA-like domain of hRad9, aa 1-270 (protein)
chain: MKCLVTGGNVKVLGKAVHSLSRIGDELYLEPLEDGLSLRTVNSSRSAYACFLFAPLFFQQYQAATPGQDLLRCKILMKSFLSVFRSLAMLEKTVEKCCISLNGRSSRLVVQLHCKFGVRKTHNLSFQDCESLQAVFDPASCPHMLRAPARVLGEAVLPFSPALAEVTLGIGRGRRVILRSYHEEEADSTAKAMVTEMCLGEEDFQQLQAQEGVAITFCLKEFRGLLSFAESANLNLSIHFDAPGRPAIFTIKDSLLDGHFVLATLSDTDS
- interaction with AR (AR [9]): did not
- interaction between AR N- and C-terminus (AR N/C interaction): no effect

B4: C-terminus of hRad9: hRad9 aa 269-391 (protein, UniProt Q99638 269-391, looked up, fragment)
chain: DSHSQDLGSPERHQPVPQLQAHSTPHPDDFANDDIDSYMIAMETTIGNEGSRVLPSISLSPGPQPPKSPGPHSEEEDEAEPSTVPGTPPPKKFRSLFFGSILAPVRSPQGPSPVLAEDSEGEG
- AR-mediated transactivation (full length AR) (AR [10]): suppressed
- interaction with AR (AR [9]): strong interaction
- interaction between AR N- and C-terminus (AR N/C interaction): potently inhibit
